Results published in patent US5238920A, “Pulmonary surfactant protein fragments” (Abbott Laboratories, priority 1989, dated 1993).
“And” between values parts separate entries of the source, which are not always exact repeats. Equal values may be shown once. No end group written: not given here.

Tests used:
Assay type in all cases: physicochemical
[1] = Dynamic surface tension versus compressed surface area, modified Wilhelmy balance-Langmuir trough; settings: 675 ug phospholipid on trough at 445 sq. cm, peptide 0.5 mg/ml (2% of solids) in DPPC:PG:PA lipids; for Surface tension, Maximum: maximum recorded during seven complete cycles; for Surface tension, Minimum: minimum recorded during seven complete cycles
Source text: The dynamic surface tension lowering properties of the peptide/lipid admixtures were studied using a modified Wilhelmy surface Balance (Langmuir Trough). The instrument consists of an all Teflon trough and movable Teflon ribbon (dam) barrier system which completely contains and defines a variable surface area. Surface area was varied through the use of a constant rate reversible 3-phase motor to drive the Teflon barrier. A Cahn 2000 electrobalance (Cahn Instruments, Cerittos, Calif.) with a sandblasted 1 cm platinum plate and stainless steel hangdown wire was employed to determine the surface tension at the liquid-air interface. The entire apparatus was situated in a thermostated incubator set at 45° C. Surface area-surface tension measurements were made by adding 950 ml of 0.15 M NaCl to the trough. Subphase temperature was controlled during the measurements at 36°-38° C.
For each experiment 27 ul of peptide/lipid admixture was applied in a random array of 13 (.perspectiveto.2 ul) droplets to the surface of the temperature controlled subphase and allowed to spread spontaneously for 3 minutes. (The 27 ul application corresponds to 675 ug of phospholipid). The trough surface area was then cycled from a maximum (445 sq. cm) to a minimum (178 sq. cm) surface area and black to maximum at a cycling rate of 3 cycles/min (compression ratio 2.5:1). The dynamic surface tension vs surface area was recorded for 7 complete compression-expansion cycles for each application.

[2] = Adsorption (surface tension lowering), modified Wilhelmy surface balance; settings: equilibrium adsorption after three (3) minutes spreading time; peptide 0.5 mg/ml (2% of solids)
Experimental: A procedures similar to that described by Notter, et al., Petaitric Res. 16, 515-519, (1982) was employed to determined the absorption rate in the absence of diffusion resistance. The modified Wilhelmy surface balance as described above was used. However, instead of using a Langmuir trough a round Teflon dish (5.1 cm diameter) was employed. The subphase, 70 ml of 0.15 M NaCl, was allowed to equilibrate to 37° C. in the incubator and was continuously stirred with a Teflon coated magnetic stirrer. An aliquot of the peptide/lipid fragment admixture containing 5 mg of total phospholipid was dispersed in 10 ml of 0.15 M NaCl by vortexing for 10 seconds. This dispersion was then added to the saline subphase. Surface tension lowering was monitoring using a strip chart recorder connected to the electro balance output.

[3] = Pulsating bubble surfactometer (PBS), surface tension at air-aqueous interface; settings: after 5 minutes pulsation (100 cycles), 20 cycles/minute, 37 C, 1 mg/ml phospholipid in 0.15 M NaCl; peptide 2% of phospholipids
Experimental: The Pulsating Bubble Surfactometer (PBS). The PBS equipment (Electrtonetics, Buffalo, N.Y.) used was essentially equivalent to that described in detail by G. Enhorning, J. Appld, Physiol. 43, 198-203, (1977). Recordings were made of the pressure gradient across the wall of a small air bubble, communicating with ambient air by means of a narrow chimney stack, but otherwise entirely surrounded by a 40 ul volume of the peptide/lipid admixture. The admixture concentration employed for these studies was 1 mg/ml total phospholipid (0.02 mg/ml total peptide) and the diluent was 0.15 M naCl. Immediately prior to loading the sample chamber, the diluted samples were sonicated for 15 seconds to remove any gas nuclei.
The pressure drop across the air-water interface was measured during pulsation by a pressure transducer, and the corresponding surface tension determined through the application of Young's law and the Laplace equation. Measurements were all made at 37° C. and the bubble pulsed at 20 cycles/minute to render respectively a maximum (1.1 mm) and a minimum (0.8 mm) bubble diameter. (This compression/expansion corresponds to a 50% change in the surface area of the air-water interface).

[4] = Relative surface activity by dilution studies on modified Wilhelmy balance-Langmuir trough; settings: criterion: minimum dynamic surface tension less than 5 dynes/cm for each of seven consecutive cycles; phospholipid 25 mg/ml, 675 ug applied
Experimental: For the purpose of this comparison "surface activity" is defined as follows: For any given peptide concentration, the admixture is required to result in a minimum dynamic surface tension of less than 5 dynes/cm for each of seven consecutive expansion/compression cycles.
The admixtures were diluted with the synthetic lipid mixture as described in Example 4, so as to maintain the lipid concentration in all cases at 25 mg/ml. For these studies a standard volume of 27 ul, corresponding to a total phospholipid mass of 675 ug, was applied to the Langmuir Trough with maximum dimensions of 445 sq. cm.

Molecule	Surface tension, Maximum [1]	Surface tension, Minimum [1]	Adsorption [2]	Minimum Surface Tension [3]	Lowest Peptide (Protein) Concentration At Which Surface Active Criteria Are Met [4]
SP-B(12-60): synthesized SP-B peptide fragment, position 12-60, 49 amino acids (RALIKRIQAMIPKGALAVAVAQVCRVVPLVAGGICQCLAERYSVILLDT; ends and bridges not checked; cysteine pairing not given here; UniProt P07988 212-260, looked up, fragment)	49.0 dynes/cm	< 1 dynes/cm	41.0 dynes/cm	10.3 ± 0.67 dyne/cm	30.0 ug/ml and 11.4 uM
SP-B(27-78): synthesized SP-B peptide fragment, position 27-78, 52 amino acids (LAVAVAQVCRVVPLVAGGICQCLAERYSVILLDTLLGRMLPQLVCRLVLRCS; ends and bridges not checked; cysteine pairing not given here; UniProt P07988 227-278, looked up, fragment)	49.5 dynes/cm	< 1 dynes/cm	40.0 dynes/cm	4.7 ± 0.26 dyne/cm	30.0 ug/ml and 5.3 uM
SP-B(1-60): synthesized SP-B peptide fragment, position 1-60, 60 amino acids (FPIPLPYCWLCRALIKRIQAMIPKGALAVAVAQVCRVVPLVAGGICQCLAERYSVILLDT; ends and bridges not checked; cysteine pairing not given here; UniProt P07988 201-260, looked up, fragment)	47.5 dynes/cm	< 1 dynes/cm	42.0 dynes/cm	7.2 ± 0.26 dyne/cm	125.0 ug/ml and 18.9 uM
SP-B(1-40): synthesized SP-B peptide fragment, position 1-40, 40 amino acids	48.5 dynes/cm	< 1 dynes/cm	42.5 dynes/cm	7.1 ± 0.41 dyne/cm	15.0 ug/ml and 3.3 uM
SP-B(30-60): synthesized SP-B peptide fragment, position 30-60 (AVAQVCRVVPLVAGGICQCLAERYSVILLDT; ends and bridges not checked; cysteine pairing not given here; UniProt P07988 230-260, looked up, fragment)	52.0 dynes/cm	< 1 dynes/cm	41.0 dynes/cm	16.9 ± 0.95 dyne/cm	250.0 ug/ml and 76.7 uM
SP-B(1-78): replica of the entire 78 amino acid residue sequence of the native human SP-B protein (peptide, UniProt P07988 201-279, looked up, Pulmonary surfactant-associated protein B synthetic) Pulmonary …: FPIPLPYCWLCRALIKRIQAMIPKGALAVAVAQVCRVVPLVAGGICQCLAERYSVILLDTLLGRMLPQLVCRLVLRCSM	44.0 dynes/cm	< 1 dynes/cm	37.5 dynes/cm	4.0 ± 0.72 dyne/cm	15.0 ug/ml and 1.7 uM
